B1: hexa-His-Xa-Met-AP M206A, Q233A (protein)
chain: MAISIKTPEDIEKMRVAGRLAAEVLEMIEPYVKPGVSTGELDRICNDYIVNEQHAVSACLGYHGYPKSVCISINEVVCHGIPDDAKLLKDGDIVNIDVTVIKDGFHGDTSKMFIVGKPTIMGERLCRITQESLYLALRMVKPGINLREIGAAIQKFVEAEGFSVVREYCGHGIGRGFHEEPQVLHYDSRETNVVLKPGMTFTIEPAVNAGKKEIRTMKDGWTVKTKDRSLSAAYEHTIVVTDNGCEILTLRKDDTIPAIISHDE
B2: Met-AP (M206A) (protein)
chain: MAISIKTPEDIEKMRVAGRLAAEVLEMIEPYVKPGVSTGELDRICNDYIVNEQHAVSACLGYHGYPKSVCISINEVVCHGIPDDAKLLKDGDIVNIDVTVIKDGFHGDTSKMFIVGKPTIMGERLCRITQESLYLALRMVKPGINLREIGAAIQKFVEAEGFSVVREYCGHGIGRGFHEEPQVLHYDSRETNVVLKPGMTFTIEPAVNAGKKEIRTMKDGWTVKTKDRSLSAQYEHTIVVTDNGCEILTLRKDDTIPAIISHDE

Target: Met-hIL-21, Q9HBE4
Sequence (Q9HBE4 whole entry, looked up): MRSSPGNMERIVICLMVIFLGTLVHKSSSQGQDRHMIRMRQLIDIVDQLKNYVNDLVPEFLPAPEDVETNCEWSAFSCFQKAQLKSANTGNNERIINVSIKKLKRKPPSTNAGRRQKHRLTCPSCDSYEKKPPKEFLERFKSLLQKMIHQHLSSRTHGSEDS

| Protein | Met-free hIL-21 generated (removal of initiator Met, enzyme activity) | cleavage of Met-hIL-21 in 44 h (enzyme activity) | removal of initiator Methionine, assayed by MALDI-TOF |
| --- | --- | --- | --- |
| B1 | ˜65% Met-free hIL-21 | In 44 h. more than 90% cleavage of Met-hIL-21 could be observed | removal of Methionine from Met-IL21 below detection limits of Met-IL21 could be performed |
| B2 | – | – | removal of Methionine from Met-IL21 below detection limits of Met-IL21 could be performed |

Source: patent US20100099142
